Results on two substances are retold here after patent US9044514B2, “Lipid-peptide-polymer conjugates and nanoparticles thereof” (priority 2010, dated 2015).

Where no end group is shown, it is not given here.

Format in all cases: physicochemical
Data set [1] can be described thus: Particle size of self-assembled nanoparticles (TEM). Conditions: for Particle Size: particles self-assembled from the conjugate, Table 1. On the procedure:
Lyophilized peptide-polymer conjugates were dissolved in phosphate buffer (pH=8) at a concentration of 10 mg/ml (˜1.5 mM). Upon sonication for 30 s, solutions were diluted to 1 mg/ml (0.15 mM) or 0.1 mg/ml in phosphate buffer (pH=8). 5 μl of the diluted peptide solution were applied to a discharged holey carbon-coated copper grid (Ted Pella Cu 400 mesh 01824) for 4 minutes before absorbing off excess solution using filter paper (Whatman filter paper 1). The sample on the grid was negatively stained with a 5 μl 2% (w/v) phosphotungstic acid (adjusted to pH=3.3 with 1 M NaOH) for 2 minutes. Excess stain solution was wicked off. After complete drying, grids were examined by TEM at 120 kV (Philips/FEI Tecnai 12).
Lyophilized peptide powder was dissolved at 1 mg/ml in 25 mM phosphate buffer at pH 7.4. 5 μl of peptide solution was dropped on a discharged holey carbon coated grid (Ted Pella 01824). After removing excess peptide solution, 5 μl of phosphotungstic acid (2 wt %, pH=3.3) solution was then applied for 2 minutes. Samples were dried in air and examined by a FEI Tecnai 12 transmission electron microscope at 120 kV.

Data set [2] can be described thus: Differential scanning calorimetry (DSC) of micelles. Conditions: heating from 5° C. to 85° C.; solutions incubated at 20° C. for 16 hrs; FIG. 21A. The method, then:
DSC was performed on a VP-MicroCal calorimeter (GE). ˜600 μl of sample and buffer were loaded into two parallel stainless steel cells that were sealed tightly under the pressure of ˜27 psi to prevent water evaporation during the heating cycle. The temperature was increased from 5° to 85° C. at a rate of 1° C./min, with a 15 min equilibration time at 5° C. DSC thermograms were obtained after concentration normalization and baseline correction using the Origin software provided by the MicroCal.
In general terms: Differential scanning calorimetry records heat flow against a reference as temperature is scanned.

Data set [3] in a line: Circular dichroism (CD), peptide helicity. Conditions: CD spectra, same conditions, FIG. 31. The method, then:
Temperature dependent CD measurements were made on a Jasco J810 spectropolarimeter. CD spectra were collected from 260 to 190 nm at 0.2 nm intervals, a rate of a 100 nm/min, a response time of 4 s, and a bandwidth of 1 nm. Temperature melt curves were measured using ˜200 μM solutions. The ellipticity was monitored at 222 nm as the temperature increased from 5° to 95° C. in 5° C. increments at a rate of 1° C./min, with a 1 min equilibration time at each temperature before the measurement was taken. One hundred percent helicity was estimated using the formula [θ]222=40,000[…][1−(2.5/n)].
(In general: CD spectra are sensitive to the conformation of chiral molecules.)

Consider “Conjugate 8: dC16 lipid, heme-binding 4-helix peptide BB (SEQ ID NO: 2), PEG2K (GGGEIWKLHEEFLCKFEELLKLHEERLKKM; also: dC16 lipid, place not given here, PEG2K, place not given here)”, for which, in data set [1] (TEM for conjugate 15), the particle/micelle diameter is around 12 nm. The “Particle Size” value in data set [1] is listed as 10-15 nm.

In the case of “Conjugate 14: dC16 lipid, random coil control peptide SR (SEQ ID NO: 4), PEG2K (EGKAGEKAGAALKCGVQELEKGAEAGEGGW; also: dC16 lipid, place not given here, PEG2K, place not given here)”, the “Particle Size” value in data set [1] is reported as 10-15 nm. Also, the “DSC melting temperature / endothermic peak centre” value in data set [2] was 42 °C. Also, the helical content entry in data set [3] is “less than 5%”.
